Data taken from paper PMC6677837, “A Novel Cell-Penetrating Antibody Fragment Inhibits the DNA Repair Protein RAD51” (Scientific Reports, 2019).

B1: Fab-F2-iPTD (Fab, V domains shown)
VH: EVQLVESGGGLVQPGGSLRLSCAASGFTFSSYGMHWVRQAPGKGLEWVAVISYDGSNKYYADSVKGRFTISADTSKNTAYLQMNSLRAEDTAVYYCARTYSYASRGWYDYWGQGTLVTVSS
VL: DIQMTQSPSSLSASVGDRVTITCRASQGISNYLAWYQQKPGKAPKLLIYAASSLQSGVPSRFSGSRSGTDFTLTISSLQPEDFATYYCQQGTYLPLTFGQGTKVEIK
notes: as the heavy chain of m2; as the light chain of m2; also called cell-penetrating Fab-F2-iPTD; source: E. coli, pCW-Fab-F2-iPTD, purified
B2: Fab-F2 (Fab, V domains shown)
VH: B1 VH
VL: B1 VL
notes: Human IgG1 synthetic Fab from phage Library S (randomised CDRL3 and CDRH3, canonical other CDRs); In the Western blots the Fab was labelled with IRDye 800CW; also called IRDye 800CW-labeled Fab-F2; source: also in small-scale E. coli lysate
B3: oligo(dT)36 (ssDNA)
DNA: TTTTTTTTTTTTTTTTTTTTTTTTTTTTTTTTTTTT

Key:
[1] = biological target: T1, Recombinant human RAD51 (residues 21-339, C-terminal Leu-Glu-His6) (Homo sapiens, UniProt Q06609); assay: BLI; Fab (about 0.5 nm) immobilised on Protein L biosensors, range of RAD51 concentrations in solution; 25 °C, PBS pH 7.4 with 0.1% Tween 20 and 10 mg/mL BSA; global fit, 1:1 Langmuir model, reference well subtracted; conditions: both partners purified
T1 construct: RAD51, Homo sapiens, residues 21-339, inserted between the NcoI and XhoI sites of pET28a; Cloning at the NcoI site may add a start methionine; also called purified RAD51; plasmid-expressed RAD51; source: E. coli Rosetta(DE3), pET28a-RAD51, purified (ammonium sulfate, DE52 anion exchange, HiTrap Ni-chelating column); also in E. coli whole cell lysate

[2] = biological target: T2, Recombinant human RAD51 (residues 21-339, C-terminal Leu-Glu-His6) (human, UniProt Q06609 21-339); assay: BLI
T2 chain: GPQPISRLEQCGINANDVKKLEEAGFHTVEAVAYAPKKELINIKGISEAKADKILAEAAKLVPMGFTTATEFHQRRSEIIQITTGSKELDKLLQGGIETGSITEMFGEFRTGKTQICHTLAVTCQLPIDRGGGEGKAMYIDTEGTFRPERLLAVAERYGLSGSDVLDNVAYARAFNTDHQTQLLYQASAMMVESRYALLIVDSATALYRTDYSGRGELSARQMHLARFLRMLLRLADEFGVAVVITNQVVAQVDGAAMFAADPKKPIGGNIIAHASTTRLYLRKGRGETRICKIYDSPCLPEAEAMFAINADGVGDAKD

[3] = biological target: T1, Recombinant human RAD51 (residues …); assay: cell-based or functional assay
RAD51 = RAD51 (Homo sapiens, UniProt Q06609 21-339); assay: BLI; no Fab-F2; 1:1 Langmuir global fit; BLI on streptavidin biosensors; 0.5 uM RAD51 for the inhibition assay; buffer, salt, pH and temperature not given in the material (RAD51 dialyzed into PBS); conditions: protein: recombinant; label: 5'-biotin; single strand

| Binder | Kd [1] [nM] | koff, fold lower than for Fab-F2 [1] [fold] | kon, fold lower than for Fab-F2 [1] [fold] | koff [2] [s⁻¹] | koff [1] [s⁻¹] | kon [1] [M⁻¹ s⁻¹] | inhibition of RAD51 (500 nM, pre-incubated with various concentrations of Fab-F2) binding to immobilised 5'-biotinylated oligo(dT)36 ssDNA, by BLI; IC50 [3] [nM] | Kd (RAD51) [nM] |
| --- | --- | --- | --- | --- | --- | --- | --- | --- |
| B1 | 18.2 | ~2 | ~2 | 0.000658 | – | – | – | – |
| B2 | 8.1 ± 0.21 | – | – | – | 0.000156 | 19300 | < 125 | – |
| B3 | – | – | – | – | – | – | – | 27.6 ± 4.75 |
